Where a chain is given by its changes, count along the chain named.

Test [1] has as its target T1, interleukin 5 (IL5) (human, UniProt P05113 20-134).
T1 construct: also called human IL5 (R&D Systems)
T1 sequence (looked up): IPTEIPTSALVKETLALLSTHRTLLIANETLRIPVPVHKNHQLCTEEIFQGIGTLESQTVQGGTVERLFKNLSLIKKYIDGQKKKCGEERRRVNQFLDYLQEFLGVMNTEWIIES
The test is described as follows: phage competition ELISA: Fab-phage incubated 2 h with serial dilutions of the antigen in solution, unbound phage captured on antigen-coated wells, anti-M13-HRP; IC50 = antigen concentration inhibiting 50% of phage binding. As for the experimental part:
(§1) Fab displaying phage was first incubated with serial dilutions of the respective antigens in solution for 2 h, unbound phage was then briefly captured by antigen coated ELISA wells and detected with anti-M13 HRP conjugate. The concentration of antigen inhibiting 50% of phage binding to antigen coated well is calculated as IC₅₀. NB denotes no detectable binding of phage clone directly to the antigens coated wells.

The target in test [2] is T2, interleukin 4 (IL4) (UniProt P05112 25-153).
T2 sequence (looked up): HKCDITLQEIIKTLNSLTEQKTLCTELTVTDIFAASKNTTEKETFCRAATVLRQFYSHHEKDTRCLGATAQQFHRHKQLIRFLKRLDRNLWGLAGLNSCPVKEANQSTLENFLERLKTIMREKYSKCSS
The test is described as above. As for the experimental part:
as §1

Test [3] has as its target T3, interleukin 13 (IL13) (UniProt P35225 35-146, limits assumed). The test is described as follows: phage ELISA: direct binding of the phage clone to antigen-coated wells (NB = no detectable binding). (ELISA stands for enzyme-linked immunosorbent assay.)
The target of a further test is T4, BSA (bovine, UniProt P02769).
T4 construct: negative control protein; also called irrelevant protein coated on ELISA wells
The test is described as follows: ELISA: human IgG1 at 250 nM on protein-coated wells, anti-Fc-HRP.

Test [4] concerns the target T3, interleukin 13 (IL13). The test is described as above.
In another test the target is T5, HER2 ECD.
T5 construct: one of the irrelevant proteins; also called irrelevant protein coated on ELISA wells
The description is as above.

Test [5] has as its target T3, interleukin 13 (IL13). The test is described as follows: phage competition ELISA: Fab-phage incubated 2 h with serial dilutions of the antigen in solution, unbound phage captured on antigen-coated wells, anti-M13-HRP; IC50 = antigen concentration inhibiting 50% of phage binding. As for the experimental part: as §1
In test [6] the target is T1, interleukin 5 (IL5). The test is described as follows: phage ELISA: direct binding of the phage clone to antigen-coated wells (NB = no detectable binding).
Test [7] deals with T1, interleukin 5 (IL5). The test is described as follows: phage competition ELISA (phage IC50), soluble IL5 against IL5-coated wells. As for the experimental part:
as §1
The relative affinity of each clone was assessed by phage IC₅₀ as above.

Test [8] concerns the target T1, interleukin 5 (IL5). The test is described as follows: SPR, Fab over immobilized IL5.
In test [9] the target is T2, interleukin 4 (IL4). The test is described as follows: SPR (Biacore), Fab over CM5 chip with immobilized IL4, 25 °C. On the technique in general: In SPR one partner is held on a chip, and binding of the other changes the refractive index at the surface.
Test [10] deals with T1, interleukin 5 (IL5). The test is described as follows: SPR (Biacore), Fab over CM5 chip with immobilized human IL5, 25 °C.

T3 sequence (P35225 35-146 limits assumed): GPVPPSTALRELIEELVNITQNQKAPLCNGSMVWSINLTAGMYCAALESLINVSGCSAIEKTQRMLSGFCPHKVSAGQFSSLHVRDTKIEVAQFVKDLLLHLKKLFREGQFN
T4 sequence (P02769 25-607 limits assumed): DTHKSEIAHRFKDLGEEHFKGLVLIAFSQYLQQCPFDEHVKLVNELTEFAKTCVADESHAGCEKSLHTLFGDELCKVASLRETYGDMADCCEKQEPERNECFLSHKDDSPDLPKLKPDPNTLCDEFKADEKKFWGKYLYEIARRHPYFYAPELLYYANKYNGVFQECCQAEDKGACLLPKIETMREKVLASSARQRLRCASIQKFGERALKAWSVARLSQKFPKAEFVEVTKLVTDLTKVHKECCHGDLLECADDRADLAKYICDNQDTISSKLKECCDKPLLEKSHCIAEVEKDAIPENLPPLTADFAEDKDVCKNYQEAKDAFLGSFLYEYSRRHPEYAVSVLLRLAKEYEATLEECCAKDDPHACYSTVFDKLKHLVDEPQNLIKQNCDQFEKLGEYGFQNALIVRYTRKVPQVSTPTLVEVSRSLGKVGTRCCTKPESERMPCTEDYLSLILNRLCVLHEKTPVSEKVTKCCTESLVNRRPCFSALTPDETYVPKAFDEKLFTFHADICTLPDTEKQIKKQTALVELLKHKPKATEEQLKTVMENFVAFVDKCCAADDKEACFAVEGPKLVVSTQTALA

B1: B1, anti-IL4/IL5 dual specific variant of hu19C11, Fab displayed on phage (Fab, V domains shown)
VH: EVQLVQSGAEVKKPGASVKVSCKASGYTFTDYLMHWVRQAPGQGLEWIAVIVSITGRTYYADDFKGRVTITRDTSTSTAYLELSSLRSEDTAVYYCARGGIFYGMDYWGQGTLVTVSS
VL: DIQMTQSPSSLSASVGDRVTITCKASQSVINDAAWYQQKPGKAPKLLIYYTSHRYTGVPSRFSGSGSGTDFTLTISSLQEDFATYYCQQDYTPFPLTFGQGTKVEIKR
notes: also called clone B1
For orientation: IC50 means the concentration that gives 50% inhibition. In the case of B1, the IC50 in the test with interleukin 5 (IL5) [1] and with interleukin 4 (IL4) [2] was around 1000 nM each time. For the same molecule, in the test with interleukin 13 (IL13) [3], the binding result is on record as “no binding”.

B2: B1 as human IgG1 (antibody, V domains shown)
VH: B1 VH
VL: B1 VL
notes: also called IL4/IL5 dual specific antibody B1
As for B2, the binding result in the test with BSA, in the test with interleukin 13 (IL13) [4] and with HER2 ECD was “no binding (tested: 250 nM)” each time.

B3: F2, anti-IL4/IL13 dual specific variant of hu19C11, Fab displayed on phage (Fab, V domains shown)
VH: EVQLVQSGAEVKKPGASVKVSCKASGYTFTDYSMHWVRQAPGQGLEWIGIIFYTGHTYYADDFKGRVTITRDTSTSTAYLELSSLRSEDTAVYYCARGGIFYGMDYWGQGTLVTVSS
VL: DIQMTQSPSSLSASVGDRVTITCKASQSVINDAAWYQQKPGKAPKLLIYYTSHRYTGVPSRFSGSGSGTDFTLTISSLQEDFATYYCQQDYTSPWTFGQGTKVEIKR
In the case of B3, the IC50 was around 1000 nM in the test with interleukin 13 (IL13) [5] and 14.8 nM in the test with interleukin 4 (IL4) [2]. Further, in the test with interleukin 5 (IL5) [6], the binding result is recorded as “no binding”.

B4: E7 as human IgG1 (antibody, V domains shown)
VH: EVQLVQSGAEVKKPGASVKVSCKASGYTFTDYFIHWVRQAPGQGLEWIAGIVYDATGFTTYADDFKGRVTITRDTSTSTAYLELSSLRSEDTAVYYCARGGIFYGMDYWGQGTLVTVSS
VL: B3 VL
notes: also called IL4/IL5 dual specific antibody E7
Turning to B4, the binding result with BSA, with interleukin 13 (IL13) [4] and with HER2 ECD was “no binding (tested: 250 nM)” throughout.

B5: 1C.94 (Fab, V domains shown)
VH: B4 VH with A49G, T60A
VL: B3 VL
In turn, B5 yielded an IC50 with interleukin 5 (IL5) [7] of around 1000 nM.

B6: 1C.3 (Fab, V domains shown)
VH: B4 VH with A49G, D63V, D64E
VL: B3 VL with S93H
As to B6, the IC50 with interleukin 5 (IL5) [7] is around 1000 nM.

B7: 2B.28 (Fab, V domains shown)
VH: B4 VH with D64N, T75M, A80V
VL: B3 VL
Turning to B7, in the test with interleukin 5 (IL5) [7], the IC50 was 1.1 nM.

B8: 1C.11 (Fab, V domains shown)
VH: B4 VH with A49G, T60I, D63E, D64N
VL: B3 VL with T92I
With B8, in the test with interleukin 5 (IL5) [7], the IC50 is around 1000 nM.

B9: 2B.48 (Fab, V domains shown)
VH: B4 VH with D64A, A80V
VL: B3 VL
In turn, B9 displayed an IC50 with interleukin 5 (IL5) [7] of 9.2 nM.

B10: E7, anti-IL4/IL5 dual specific variant of hu19C11, Fab displayed on phage (Fab, V domains shown)
VH: B4 VH
VL: B3 VL
notes: also called clone E7
Take B10: the IC50 in the test with interleukin 5 (IL5) [1] and with interleukin 5 (IL5) [7] was around 1000 nM in each case. Also, in the test with interleukin 13 (IL13) [3], the binding result was “no binding”.

B11: 2C.75 (Fab, V domains shown)
VH: B4 VH with D64F, A80V
VL: B3 VL
Molecule B11 yielded an IC50 with interleukin 5 (IL5) [7] of 0.6 nM.

B12: 1C.27 (Fab, V domains shown)
VH: B4 VH with A49G, T60I
VL: B3 VL with S93H
Turning to B12, the IC50 with interleukin 5 (IL5) [7] worked out at 18.2 nM.

B13: 2B.35 (Fab, V domains shown)
VH: B4 VH with D64T, T75P, A80V
VL: B3 VL
For the molecule B13, in the test with interleukin 5 (IL5) [7], the IC50 came to 1.5 nM.

B14: 1C.91 (Fab, V domains shown)
VH: B4 VH with A49G, D63E
VL: B3 VL
In turn, B14 displayed an IC50 with interleukin 5 (IL5) [7] of around 1000 nM.

B15: 1C.42 (Fab, V domains shown)
VH: B4 VH with A49G, D64S
VL: B3 VL with S93H
On to B15, for which the IC50 with interleukin 5 (IL5) [7] is 8.5 nM.

B16: 1C.93 (Fab, V domains shown)
VH: B4 VH with A49G, T60V
VL: B3 VL with S93H
As for B16, in the test with interleukin 5 (IL5) [7], the IC50 was around 1000 nM.

B17: 1C.24 (Fab, V domains shown)
VH: B4 VH with D64S
VL: B3 VL with T92L, S93H
In the test with interleukin 5 (IL5) [7], B17 had an IC50 of around 1000 nM.

B18: 2B.6 (Fab, V domains shown)
VH: B4 VH with D64L, R73I, T75F
VL: B3 VL
In the test with interleukin 5 (IL5) [7], B18 had an IC50 of around 1000 nM.

B19: 2B.64 (Fab, V domains shown)
VH: B4 VH with D64S, V69F, A80V
VL: B3 VL
On to B19, for which, in the test with interleukin 5 (IL5) [7], the IC50 was around 1000 nM.

B20: F1, anti-IL4/IL13 dual specific variant of hu19C11, Fab displayed on phage (Fab, V domains shown)
VH: B3 VH with I50V, Y53Q, T54S, H56A
VL: B3 VL
Regarding B20, the IC50 with interleukin 13 (IL13) [5] was around 1000 nM; with interleukin 4 (IL4) [2], 22.3 nM. For the same molecule, the binding result with interleukin 5 (IL5) [6] was “no binding”.

B21: 1C60, affinity-matured variant of E7, purified as Fab (Fab, V domains shown)
VH: B4 VH with T60V
VL: B3 VL with T92K, S93H
notes: Purified Fab for SPR
In general, Kd refers to the constant that tells how readily two partners part at equilibrium. Low readings indicate higher affinity, high ones lower affinity. Broadly, the koff is the first-order rate constant of dissociation. One may read the kon as the rate constant with which the complex forms. B21: in the test with interleukin 5 (IL5) [8], the Kd came out at 44.4 nM and the “fold improvement of affinity toward IL5 against E7” value is 20 fold. In the test with interleukin 4 (IL4) [9], this molecule registered a Kd of 4.9 nM, a koff of 0.00342 s⁻¹ and a kon of 697000 M⁻¹ s⁻¹. In the test with interleukin 5 (IL5) [10], the koff came out at 0.000552 s⁻¹ and the kon came out at 12400 M⁻¹ s⁻¹.

B22: 1C36, affinity-matured variant of E7, purified as Fab (Fab, V domains shown)
VH: B4 VH with A49G, D63E, D64E
VL: B3 VL with S93H
notes: Purified Fab for SPR
In the case of B22, in the test with interleukin 5 (IL5) [8], the Kd is 24.1 nM and the “fold improvement of affinity toward IL5 against E7” value stood at 37 fold. In the test with interleukin 4 (IL4) [9], the Kd is 3.5 nM, the koff is 0.00197 s⁻¹ and the kon is 557000 M⁻¹ s⁻¹. In the test with interleukin 5 (IL5) [10], this molecule returned a koff of 0.000221 s⁻¹ and a kon of 9180 M⁻¹ s⁻¹.

Values taken from patent publication US20160257744A1 (Genentech, published 2016).
